Test results reported in the supplement of paper PMC12764529.
± gives the half width of the 95% confidence interval.

Assays:
[1] = folding stability dG unfold from trypsin proteolysis; higher = more stable
Outline: (§1)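 Sequencing followed digestion of designed mini-proteins with trypsin and chymotrypsin, each at 11 concentrations in threefold dilutions together with a no-protease condition. The mini-proteins were under 80 residues, had no cysteine, sat in a PA-tagged cDNA display construct, and were kept only if AlphaFold2 dimer inter-PAE was above 15. From the counts, Bayesian fitting gave K50, and unfolding free energy was derived against a sequence-predicted unfolded-state K50 and a shared folded-state K50, per protease or combined.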

[2] = folding stability dG unfold (combined trypsin and chymotrypsin); higher = more stable
Outline: as §1

[3] = folding stability dG unfold from chymotrypsin proteolysis; higher = more stable
Outline: as §1

| Sequence | folding stability dG unfold [1] [kcal/mol] | folding stability dG unfold [2] [kcal/mol] | folding stability dG unfold [3] [kcal/mol] |
| --- | --- | --- | --- |
| SAGGSGMTETIKLSDPKNGLSVTVTVTFDPATGSKSVTITVESSEEAKEKVKALLEEKGLPVTVTSSAGGSA [r2_30_JUSTAS] | 0.716 ± 0.063 | 1.27 ± 0.081 | 1.55 ± 0.082 |
| SAGGSGMVITIPVELPTPRTLTFTFYPETGTATVEVSPGVPAAEVRATVEEVFAAHGLKLNPITLLSAGGSA [r2_497_JUSTAS] | 0.995 ± 0.02 | 1.39 ± 0.066 | 1.61 ± 0.075 |
| SAGGSGPPVLVRLEVEVLGEPYTLTLPVPASLIHPSQRVRFRVRVVSVDPVNNRVTVRIESVELYPSAGGSA [r2_479_TrMRF] | 2.75 ± 0.065 | 2.98 ± 0.036 | 3.018 ± 0.021 |
| SAGGSGQKFEIDRMIHIPLPNGRMLYIMRMKNPIMIMEFNGDNFRPVATVPNDDIPPEIRDLIKKLSAGGSA [r2_133_TrROS] | 1.95 ± 0.068 | 2.27 ± 0.12 | 2.25 ± 0.11 |
| SAGGSGSSMSVSVSVTTSPVSVDPNKPVPIEVATTTTPVSSYDPVTGTSSTTTTTTTVPLGNPEAASAGGSA [r2_489_JUSTAS] | 2.62 ± 0.081 | 1.98 ± 0.051 | 1.42 ± 0.044 |
| SAGGSIEELAREKALEEHKKTGEKNYPFTFEFEIVSSYEFAPDGTPVASSEFPFKITLKFKLPPKKKSAGGS [r16_156_JUSTAS] | 1.44 ± 0.024 | 2.43 ± 0.12 | 2.88 ± 0.069 |
| SAGGSIETIAERARDLARELNPDDGKEYPITIEIRDPENNRPIRIKISVRYDPDGKIKKVKFTKFEPYSAGG [r13_770_TrROS] | 1.03 ± 0.06 | 1.06 ± 0.077 | 1.04 ± 0.11 |
| SAGGSIKVFESESTDPATGKVTTTTTTVTESSEEPTPEAAKNTPPGETTTTTTTTTTTSPVPPGTAASAGGS [r8_274_JUSTAS] | 0.476 ± 0.057 | 0.54 ± 0.14 | 0.67 ± 0.022 |
| SAGGSIRIYANNVEITDIEIGDDGYIEIKVRMRGPNGQPQEFTLMIRVVPPPPPPKVDPNDPDAKDSAGGSA [r2_368_TrROS] | 2.51 ± 0.1 | 3.08 ± 0.31 | 3.5 ± 0.29 |
| SAGGSITSTTTLPDGTTVTTTVLPSGVTVVTTSTLDPATGTVSTTTTTLPPSSATTTTTTTTVPPLTSAGGS [r16_230_JUSTAS] | 3.18 ± 0.12 | 2.58 ± 0.046 | 2.16 ± 0.029 |
| SAGGSIWIPIDSPEDVEEAIDFIQDFLAERGMPPGHDIKKIKVERMENGHYWVEIEFPGRKIYIWVSAGGSA [r2_120_TrROS] | 2.62 ± 0.049 | 3.65 ± 0.084 | 4.02 ± 0.054 |
| SAGGSKIHIPIDPESGNFRIKVYPPDEPKEVSIQFKDPDDPEEFMDRAIEEANEYANNGYRVEIEPSAGGSA [r2_118_TrROS] | -0.52 ± 0.3 | -0.668 ± 0.48 | -0.278 ± 0.58 |
| SAGGSKIKIVEVKKNEDGTVTVKVEVEINGKKYTIEARFETLEDGKKVMTLRITNENGEEIEIVLPSAGGSA [r2_376_TrROS_Hall] | 3.45 ± 0.38 | 5.12 ± 0.32 | 5.22 ± 0.17 |
| SAGGSKIPLDNIKVITIMYNPKEGMYWISIRFPNNGKEVVFPYEDAPKILEKFPEIKEIEVYPFPPSAGGSA [r2_159_TrROS] | 2.25 ± 0.11 | 2.59 ± 0.084 | 2.76 ± 0.036 |
| SAGGSKKTLTITVKNKETGETVKIKVELTPDGKKIKITIVAKKEEEAKEAAKKLLEELGYKVEIVPSAGGSA [r2_30_TrROS_Hall] | 3.15 ± 0.36 | 2.09 ± 0.2 | 1.61 ± 0.066 |
| SAGGSKKVILIAKIPNEDKYLVLIASDSPELVKEAAKKAKKPGFYVLGEMTVEEAVKKLGLPPELFKSAGGS [r16_438_TrMRF] | 1.04 ± 0.03 | 2.23 ± 0.19 | 2.5 ± 0.051 |
| SAGGSKLPPGQKVIEIEWKIPPGLKPGQPFKISDEFINKLAERHGNIHITNIQFTNSYMKWSIIIDSAGGSA [r2_383_TrROS] | 1.83 ± 0.063 | 2.11 ± 0.067 | 2.2 ± 0.051 |
| SAGGSKMEIVKYDKEKNVIYVRVDGKTYTFPLDEITEVTFDEETGELTIKVNGKTYTIKLDLPDLVSAGGSA [r2_48_TrROS_Hall] | 3.22 ± 0.16 | 4.11 ± 0.29 | 4.29 ± 0.12 |
| SAGGSKMPPGYKMIPIEIPFRTPEDLEQAINFAEELAREGFTIIDIDVEIPEGDNYRVEFHIMLPYSAGGSA [r2_350_TrROS] | 1.85 ± 0.056 | 2.31 ± 0.1 | 2.6 ± 0.048 |
| SAGGSKPILKIKITIYRIDKNGKLIKKIELTLPPLTEEQLKKLLEALKKLPKDVKIVEVKIELVEPSAGGSA [r2_75_TrROS_Hall] | 3.49 ± 0.32 | 4.16 ± 0.31 | 4.54 ± 0.26 |
| SAGGSKPLKKIVIPLTPEELKKLKGKKVKITIKVDGKEYEIEFIDGYAVITVPAGEKVEITKIEIESAGGSA [r2_246_TrROS_Hall] | 2.47 ± 0.15 | 2.41 ± 0.22 | 2.36 ± 0.12 |

| Sequence | folding stability dG unfold [1] [kcal/mol] | folding stability dG unfold [2] [kcal/mol] | folding stability dG unfold [3] [kcal/mol] |
| --- | --- | --- | --- |
| SAGGSKPVKVTVRRDPKNPDKWTVTVTAGDKTTTLTFDPNDEAAVRAALEAALPADEVLEELEFEDLLSAGG [r13_519_JUSTAS] | 2.8 ± 0.12 | 2.88 ± 0.17 | 2.99 ± 0.043 |
| SAGGSKTITIELTTKDGYKFTITVTEKDDKVTANITFLDPTVTPEKIDETIATLEKLAKEAGKNLTISSAGG [r13_774_TrMRF] | 2.62 ± 0.11 | 3.36 ± 0.095 | 3.66 ± 0.088 |
| SAGGSKVRIEVEELPDGTVKVTAEVEVDGVLYKIEAEFRINEDGEIVEMKVKIEARPLPPPPPPEESAGGSA [r2_474_TrROS_Hall] | 3.5 ± 0.27 | 3.92 ± 0.21 | 4.17 ± 0.17 |
| SAGGSLEDFELAGTFPATSEGETLLVTVWKSKEPGKYVVSAYYPSTGIPEVKVVNPEDIEEFFKNLYSAGGS [r8_469_TrMRF] | 1.48 ± 0.02 | 1.78 ± 0.054 | 1.95 ± 0.051 |
| SAGGSLELPEGAKVEVEVEIEEVDDDTVKIKVKVKFTFINEDGEPETFEAEFEFEIPKEEAEELLGSAGGSA [r2_226_TrMRF] | 1.88 ± 0.17 | 3.32 ± 0.13 | 3.66 ± 0.11 |
| SAGGSLFEKLNVKSVEVTEVKTYTLPPLPLTVEVPTVKVTLPDGTVIEFTVIKTYDPEDPTPTVTLGSAGGS [r8_422_JUSTAS] | 0.822 ± 0.027 | 1.08 ± 0.07 | 1.31 ± 0.12 |
| SAGGSLKDMPVEDLAKYFARKMGYPITDVKVERNPDPPWIKINIEMEHPNDGRRHPHEIWIPKDDISAGGSA [r2_156_TrROS] | 0.527 ± 0.062 | 0.995 ± 0.083 | 1.3 ± 0.11 |
| SAGGSLLEQEAAARGYQVEIERIPGTGVYLVTLTPPDGSRVVVTVEVVKTPKTGLVELRTLETRELPPSAGG [r13_936_JUSTAS] | 1.24 ± 0.023 | 1.53 ± 0.052 | 1.707 ± 0.011 |
| SAGGSLSEIIEKAKELAKKKYPNKGVTVPVEIKYKDPVKKKWIKVKIEITFDKNGNIIKITIKEIKLESAGG [r13_770_JUSTAS] | 3.48 ± 0.27 | 3.91 ± 0.41 | 4.04 ± 0.12 |
| SAGGSMAKILEIIPEEKKIVVEFEGDPKTFPLDEIEEIRIEPEKGYLTIKVGDKVYTIPLDDPNDFSAGGSA [r2_48_TrMRF] | 0.579 ± 0.027 | 1.81 ± 0.082 | 2.25 ± 0.044 |
| SAGGSMDLRVVVVGEDGKVLELPAGEEVSLPDVVAFFSELGDFEVEAHPESGTLTIRVPKGVLEEASAGGSA [r2_164_TrMRF] | 0.543 ± 0.02 | 0.728 ± 0.046 | 0.804 ± 0.042 |
| SAGGSMEIVKKETFTLEDGRKIEVVYDKETNKYVVKIYNKETGEEVEITVKSKEEAEEALKKLLEESAGGSA [r2_70_TrROS_Hall] | 1.88 ± 0.13 | 3.43 ± 0.37 | 3.76 ± 0.072 |
| SAGGSMIEEAIEEALKKGLEKVEIEVEVEVNGKIYRVKMEIVKVEEGKVEIKIEVEEIDPETGKLISAGGSA [r2_420_TrROS_Hall] | 2.54 ± 0.13 | 3.53 ± 0.19 | 3.92 ± 0.15 |
| SAGGSMIELTLTSTVPDGTPASTVPPEVAREQALAYAEAQGLTVVEIRVEFDPEAGTITIPVVTALSAGGSA [r2_237_JUSTAS] | 1.38 ± 0.042 | 1.11 ± 0.12 | 0.679 ± 0.13 |
| SAGGSMISTLSESVDPAKNTTYYLNLYTEGSRAYGALVTVTTDPATGTKTITTKFPALPEVTTTETVASAGG [r13_615_JUSTAS] | 0.511 ± 0.026 | 0.551 ± 0.034 | 0.489 ± 0.061 |
| SAGGSMIVIVEIKPDGTIKIKVRTKDGKEKTIEISKEELEKEETPEEIAEKLAKEFEKEGVEEIEISAGGSA [r2_249_TrROS_Hall] | 2.88 ± 0.26 | 2.26 ± 0.32 | 2.19 ± 0.54 |
| SAGGSMKEIVELGEVEFEEDSVALKVKFKVKLVFYDPETGEKVEEREEELEVYFGGDTLEFSPVEGSAGGSA [r2_271_TrMRF] | 1.49 ± 0.045 | 2.08 ± 0.11 | 2.373 ± 0.02 |
| SAGGSMKIVEIKIKRNKNGKLTIEIKVELSEEELEDKEKRKKLIEELAKKLAEELEKKFGIKVEVPSAGGSA [r2_306_TrROS_Hall] | 3.16 ± 0.089 | 3.28 ± 0.14 | 3.28 ± 0.091 |
| SAGGSMKVKIEVEKTPKGYKVRITVEKDGKTYEFEFPEDMSLEEVLEKLKKELEKEGVEIEKIEIVSAGGSA [r2_497_TrROS_Hall] | 3.15 ± 0.13 | 4.43 ± 0.26 | 4.58 ± 0.15 |
| SAGGSMLEVYYRIPPDIPLEEALERVAREVEEVLRARYGGPVTVEAEEVERPPDDETLLRVLVRFESAGGSA [r2_214_TrMRF] | 1.7 ± 0.03 | 2.37 ± 0.11 | 2.558 ± 0.024 |
| SAGGSMLTPDQVIELPDPNVTATITESEVLEEDPEHGTLLVKYLVVISKNGNPVEEERLLRVPKPVSAGGSA [r2_272_JUSTAS] | 0.205 ± 0.042 | -0.01 ± 0.079 | -0.476 ± 0.22 |
